Measured values: doi:10.1101/2025.02.03.636340

Molecular target: HA-SNAP-mGluR3 (rat metabotropic glutamate receptor 3) (rat), P31422
Experiment: SiMPull with photobleaching step analysis
Details: remark: other sources report otherwise

B1: HA-SNAP-mGluR3 (rat metabotropic glutamate receptor 3), P31422 23-879 (receptor)
chain: LGDHNFMRREIKIEGDLVLGGLFPINEKGTGTEECGRINEDRGIQRLEAMLFAIDEINKDNYLLPGVKLGVHILDTCSRDTYALEQSLEFVRASLTKVDEAEYMCPDGSYAIQENIPLLIAGVIGGSYSSVSIQVANLLRLFQIPQISYASTSAKLSDKSRYDYFARTVPPDFYQAKAMAEILRFFNWTYVSTVASEGDYGETGIEAFEQEARLRNICIATAEKVGRSNIRKSYDSVIRELLQKPNARVVVLFMRSDDSRELIAAANRVNASFTWVASDGWGAQESIVKGSEHVAYGAITLELASHPVRQFDRYFQSLNPYNNHRNPWFRDFWEQKFQCSLQNKRNHRQVCDKHLAIDSSNYEQESKIMFVVNAVYAMAHALHKMQRTLCPNTTKLCDAMKILDGKKLYKEYLLKINFTAPFNPNKGADSIVKFDTFGDGMGRYNVFNLQQTGGKYSYLKVGHWAETLSLDVDSIHWSRNSVPTSQCSDPCAPNEMKNMQPGDVCCWICIPCEPYEYLVDEFTCMDCGPGQWPTADLSGCYNLPEDYIKWEDAWAIGPVTIACLGFLCTCIVITVFIKHNNTPLVKASGRELCYILLFGVSLSYCMTFFFIAKPSPVICALRRLGLGTSFAICYSALLTKTNCIARIFDGVKNGAQRPKFISPSSQVFICLGLILVQIVMVSVWLILETPGTRRYTLPEKRETVILKCNVKDSSMLISLTYDVVLVILCTVYAFKTRKCPENFNEAKFIGFTMYTTCIIWLAFLPIFYVTSSDYRVQTTTMCISVSLSGFVVLGCLFAPKVHIVLFQPQKNVVTHRLHLNRFSVSGTATTYSQSSASTYVPTVCNGREVLDSTTSSL
modifications: here or on the partner: SNAP tag labelled with SBG-JF646; SNAP tag labelled with SBG-JF646
  % of spots with 2 bleaching steps in the receptor channel: 50%
  stoichiometry N: 2
